Measurements: ChEMBL document CHEMBL1156423

Test system: O=C(O)P(=O)(O)O
Conditions: Human immunodeficiency virus 1
Description: Inhibition of HIV1 reverse transcriptase E89K mutant mediated single strand incorporation into DNA at +16 position using polypurine tract PPT+16/PPT57 template after 7 mins by gel based assay

Human immunodeficiency virus type 1 reverse transcriptase (Human immunodeficiency virus 1) (from UniProt Q72547) E89K
kcat/Km: 6000 M⁻¹ s⁻¹
